Data from the supplement of paper PMC10567573.

B1: SPATS1 (parent)
chain: YPEQSKGFHKAGSMLPPVNFSIVP
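Further: lentivirally expressed fusions sorted by FACS into six bins by GFP to DsRed ratio, PSI derived from sequencing read proportions per bin multiplied by bin number.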

Variants of: B1
Experiment: protein stability index of a GFP-peptide fusion (GPS, HEK-293T) (PSI 1-6); higher = more stable
Conditions: c terminus: a fixed tail appended
With YPEQSKGFHIAGSMLPPVNFSIVP the protein stability index was 1.7. In the case of YPEQSKGFHLAGSMLPPVNFSIVP, the protein stability index is reported as 2.88. YPEQSKGFHMAGSMLPPVNFSIVP gave a protein stability index of 1.93. In the case of YPEQSKGFHNAGSMLPPVNFSIVP, the protein stability index is reported as 2. With YPEQSKGFHPAGSMLPPVNFSIVP the protein stability index was 2. In the case of YPEQSKGFHQAGSMLPPVNFSIVP, the protein stability index is reported as 1.9. For YPEQSKGFHRAGSMLPPVNFSIVP, the protein stability index was 2.47. With YPEQSKGFHSAGSMLPPVNFSIVP the protein stability index was 1.91. For YPEQSKGFHTAGSMLPPVNFSIVP, the protein stability index was 2.08. YPEQSKGFHVAGSMLPPVNFSIVP gave a protein stability index of 1.76. With YPEQSKGFHWAGSMLPPVNFSIVP the protein stability index was 3.61. For YPEQSKGFHYAGSMLPPVNFSIVP, the protein stability index was 2.15. For YPEQSKGFHKCGSMLPPVNFSIVP, the protein stability index was 2.03. For YPEQSKGFHKDGSMLPPVNFSIVP, the protein stability index was 2.29. With YPEQSKGFHKEGSMLPPVNFSIVP the protein stability index was 2.78. Work on YPEQSKGFHKFGSMLPPVNFSIVP yielded a protein stability index of 2.1. With YPEQSKGFHKGGSMLPPVNFSIVP the protein stability index was 1.98. YPEQSKGFHKHGSMLPPVNFSIVP showed a protein stability index of 2.21. In the case of YPEQSKGFHKIGSMLPPVNFSIVP, the protein stability index is reported as 2.7. In the case of YPEQSKGFHKKGSMLPPVNFSIVP, the protein stability index is reported as 2.15. For YPEQSKGFHKLGSMLPPVNFSIVP, the protein stability index was 1.55. With YPEQSKGFHKMGSMLPPVNFSIVP the protein stability index was 1.84. With YPEQSKGFHKNGSMLPPVNFSIVP the protein stability index was 1.81. YPEQSKGFHKPGSMLPPVNFSIVP showed a protein stability index of 2.19. In the case of YPEQSKGFHKQGSMLPPVNFSIVP, the protein stability index is reported as 2.17. Variant YPEQSKGFHKRGSMLPPVNFSIVP has a protein stability index of 2.33. YPEQSKGFHKSGSMLPPVNFSIVP gave a protein stability index of 1.78. YPEQSKGFHKTGSMLPPVNFSIVP gave a protein stability index of 1.83. For YPEQSKGFHKVGSMLPPVNFSIVP, the protein stability index was 1.67. For YPEQSKGFHKWGSMLPPVNFSIVP, the protein stability index was 1.82. Variant YPEQSKGFHKYGSMLPPVNFSIVP has a protein stability index of 1.74. For YPEQSKGFHKAASMLPPVNFSIVP, the protein stability index was 1.76. In the case of YPEQSKGFHKACSMLPPVNFSIVP, the protein stability index is reported as 2.75. YPEQSKGFHKADSMLPPVNFSIVP gave a protein stability index of 2.08. In the case of YPEQSKGFHKAESMLPPVNFSIVP, the protein stability index is reported as 1.95. Variant YPEQSKGFHKAFSMLPPVNFSIVP has a protein stability index of 1.64. In the case of YPEQSKGFHKAHSMLPPVNFSIVP, the protein stability index is reported as 1.94. YPEQSKGFHKAISMLPPVNFSIVP showed a protein stability index of 1.49. YPEQSKGFHKAKSMLPPVNFSIVP showed a protein stability index of 1.98. YPEQSKGFHKALSMLPPVNFSIVP showed a protein stability index of 2.24. In the case of YPEQSKGFHKAMSMLPPVNFSIVP, the protein stability index is reported as 1.7. In the case of YPEQSKGFHKANSMLPPVNFSIVP, the protein stability index is reported as 1.94. YPEQSKGFHKAPSMLPPVNFSIVP gave a protein stability index of 2. YPEQSKGFHKAQSMLPPVNFSIVP gave a protein stability index of 1.66. Work on YPEQSKGFHKARSMLPPVNFSIVP yielded a protein stability index of 2.26. With YPEQSKGFHKASSMLPPVNFSIVP the protein stability index was 1.84. In the case of YPEQSKGFHKATSMLPPVNFSIVP, the protein stability index is reported as 2.04. Variant YPEQSKGFHKAVSMLPPVNFSIVP has a protein stability index of 1.79. With YPEQSKGFHKAWSMLPPVNFSIVP the protein stability index was 2.08. Variant YPEQSKGFHKAYSMLPPVNFSIVP has a protein stability index of 2.64. Variant YPEQSKGFHKAGAMLPPVNFSIVP has a protein stability index of 1.68. YPEQSKGFHKAGCMLPPVNFSIVP showed a protein stability index of 1.73. YPEQSKGFHKAGDMLPPVNFSIVP showed a protein stability index of 2.17. Work on YPEQSKGFHKAGEMLPPVNFSIVP yielded a protein stability index of 2.24. Variant YPEQSKGFHKAGFMLPPVNFSIVP has a protein stability index of 1.97. YPEQSKGFHKAGGMLPPVNFSIVP gave a protein stability index of 1.85. YPEQSKGFHKAGHMLPPVNFSIVP showed a protein stability index of 1.9. Variant YPEQSKGFHKAGIMLPPVNFSIVP has a protein stability index of 1.74. YPEQSKGFHKAGKMLPPVNFSIVP showed a protein stability index of 1.95. Work on YPEQSKGFHKAGLMLPPVNFSIVP yielded a protein stability index of 1.88. With YPEQSKGFHKAGMMLPPVNFSIVP the protein stability index was 1.69. For YPEQSKGFHKAGNMLPPVNFSIVP, the protein stability index was 2.13. Variant YPEQSKGFHKAGPMLPPVNFSIVP has a protein stability index of 1.88. YPEQSKGFHKAGQMLPPVNFSIVP showed a protein stability index of 1.97. In the case of YPEQSKGFHKAGRMLPPVNFSIVP, the protein stability index is reported as 2.15. YPEQSKGFHKAGTMLPPVNFSIVP showed a protein stability index of 1.7. YPEQSKGFHKAGVMLPPVNFSIVP showed a protein stability index of 1.67. YPEQSKGFHKAGWMLPPVNFSIVP gave a protein stability index of 2.1. For YPEQSKGFHKAGYMLPPVNFSIVP, the protein stability index was 1.78. YPEQSKGFHKAGSALPPVNFSIVP gave a protein stability index of 2.13. Work on YPEQSKGFHKAGSCLPPVNFSIVP yielded a protein stability index of 2.25. In the case of YPEQSKGFHKAGSDLPPVNFSIVP, the protein stability index is reported as 1.96. YPEQSKGFHKAGSELPPVNFSIVP gave a protein stability index of 1.88. YPEQSKGFHKAGSFLPPVNFSIVP gave a protein stability index of 2.28. YPEQSKGFHKAGSGLPPVNFSIVP gave a protein stability index of 1.97. Work on YPEQSKGFHKAGSHLPPVNFSIVP yielded a protein stability index of 1.87. In the case of YPEQSKGFHKAGSILPPVNFSIVP, the protein stability index is reported as 1.83. Work on YPEQSKGFHKAGSKLPPVNFSIVP yielded a protein stability index of 2.47. YPEQSKGFHKAGSLLPPVNFSIVP gave a protein stability index of 1.74. In the case of YPEQSKGFHKAGSNLPPVNFSIVP, the protein stability index is reported as 2.37. Work on YPEQSKGFHKAGSPLPPVNFSIVP yielded a protein stability index of 2.07. Work on YPEQSKGFHKAGSQLPPVNFSIVP yielded a protein stability index of 2.08. In the case of YPEQSKGFHKAGSRLPPVNFSIVP, the protein stability index is reported as 2.8. With YPEQSKGFHKAGSSLPPVNFSIVP the protein stability index was 2.17. YPEQSKGFHKAGSTLPPVNFSIVP gave a protein stability index of 1.99. For YPEQSKGFHKAGSVLPPVNFSIVP, the protein stability index was 2.03. In the case of YPEQSKGFHKAGSWLPPVNFSIVP, the protein stability index is reported as 1.91. Variant YPEQSKGFHKAGSYLPPVNFSIVP has a protein stability index of 2. In the case of YPEQSKGFHKAGSMAPPVNFSIVP, the protein stability index is reported as 1.63. YPEQSKGFHKAGSMCPPVNFSIVP showed a protein stability index of 2.05. YPEQSKGFHKAGSMDPPVNFSIVP showed a protein stability index of 2.29. In the case of YPEQSKGFHKAGSMEPPVNFSIVP, the protein stability index is reported as 2.37. Variant YPEQSKGFHKAGSMFPPVNFSIVP has a protein stability index of 1.84. Work on YPEQSKGFHKAGSMGPPVNFSIVP yielded a protein stability index of 1.58.
